Tests used:
[1] = target: T1, gp100 (209-217 analogue) peptide on HLA-A*02:01 (human); assay: killing
T1 peptide: IMDQVPFSV

[2] = target: T2, gp100 peptide on HLA-A*02:01 (human); assay: cytolytic efficiency of the parental 296 CTL clone, peptide titration; value cited from ref. 24; T cell clone or line
T2 peptide: YLEPGPVTA

[3] = target: T2, gp100 peptide on HLA-A*02:01; assay: cytolytic efficiency of retrovirally transduced T cells, peptide titration; value taken from earlier work (ref. 24); full-length, on cells
[4] = target: T2, gp100 peptide on HLA-A*02:01; assay: 51Cr release with peptide titrated on T2 cells; RNA-electroporated CD8+ T cells 24 h after electroporation; upper end of the range; full-length, on cells
Procedure: (§1) CD8⁺ T cells were electroporated with EGFP RNA (Neg) or RNA coding for the TCR α and β chain, and were used as effector cells in cytotoxicity assays 24 h after electroporation. T2 cells loaded with different concentrations of gp100₂₈₀₋₂₈₈ peptide (as indicated) were used as target cells, and % lysis was calculated. The target to effector cell ratio was 1:15. The peptide concentration corresponding to 50% of the maximum lysis (ED₅₀), used to measure the cytolytic efficiency, is indicated by the dotted line. Average values of triplicates±SD are shown. Data of one (out of five) representative T cell donor is shown.
(§2) From previous published work, we know that the cytolytic efficiency of the parental 296 CTL clone was preserved following retroviral transduction of TCR genes into T cells. To test the avidity of the TCR RNA-transfected T cells, we performed a cytotoxicity assay (24 h after electroporation) in which we titrated the gp100₂₈₀₋₂₈₈ peptide on T2 target cells (FIG. 6). The peptide concentration corresponding to 50% of the maximum lysis (i.e. ED₅₀) of the TCR RNA-transfected T cells ranged from 300-1000 pM in three independent experiments (FIG. 6). This is in the same range as the cytolytic efficiency of the retrovirally transduced T cells (ED₅₀=300 pM). Both approximate the cytolytic efficiency of the parental 296 CTL clone, which has an ED₅₀ of 50 pM [24]. […]

[5] = target: T2, gp100 peptide on HLA-A*02:01; assay: 51Cr release with peptide titrated on T2 cells; RNA-electroporated CD8+ T cells 24 h after electroporation; ED50 is the peptide concentration at 50% of maximum lysis; lower end of the range; full-length, on cells
Procedure: as §1, §2

- EC50 of peptide [2]: 0.05 nM
- EC50 of peptide [3]: 0.3 nM
- EC50 of peptide [4]: ≤ 1 nM
- EC50 of peptide [5]: ≥ 0.3 nM
B1: gp100-specific 296 TCR (TCR, V domains shown)
Valpha: GENVEQHPSTLSVQEGDSAVIKCTYSDSASNYFPWYKQELGKGPQLIIDIRSNVGEKKDQRIAVTLNKTAKHFSLHITETQPEDSAVYFCAASTSGGTSYGKLTFGQGTILTVHP
Vbeta: EAQVTQNPRYLITVTGKKLTVTCSQNMNHEYMSWYRQDPGLGLRQIYYSMNVEVTDKGDVPEGYKVSRKEKRNFPLILESPSPNQTSLYFCASSLGSSYEQYFGPGTRLTVT
- binding result [1]: no recognition
